IntAct's records for PubMed 30567737

B1: 17S U2 SnRNP complex component HTATSF1 (Homo sapiens), O43719 (parent)
chain: MSGTNLDGNDEFDEQLRMQELYGDGKDGDTQTDAGGEPDSLGQQPTDTPYEWDLDKKAWFPKITEDFIATYQANYGFSNDGASSSTANVEDVHARTAEEPPQEKAPEPTDARKKGEKRKAESGWFHVEEDRNTNVYVSGLPPDITVDEFIQLMSKFGIIMRDPQTEEFKVKLYKDNQGNLKGDGLCCYLKRESVELALKLLDEDEIRGYKLHVEVAKFQLKGEYDASKKKKKCKDYKKKLSMQQKQLDWRPERRAGPSRMRHERVVIIKNMFHPMDFEDDPLVLNEIREDLRVECSKFGQIRKLLLFDRHPDGVASVSFRDPEEADYCIQTLDGRWFGGRQITAQAWDGTTDYQVEETSREREERLRGWEAFLNAPEANRGLRRSDSVSASERAGPSRARHFSEHPSTSKMNAQETATGMAFEEPIDEKKFEKTEDGGEFEEGASENNAKESSPEKEAEEGCPEKESEEGCPKRGFEGSCSQKESEEGNPVRGSEEDSPKKESKKKTLKNDCEENGLAKESEDDLNKESEEEVGPTKESEEDDSEKESDEDCSEKQSEDGSEREFEENGLEKDLDEEGSEKELHENVLDKELEENDSENSEFEDDGSEKVLDEEGSEREFDEDSDEKEEEEDTYEKVFDDESDEKEDEEYADEKGLEAADKKAEEGDADEKLFEESDDKEDEDADGKEVEDADEKLFEDDDSNEKLFDEEEDSSEKLFDDSDERGTLGGFGSVEEGPLSTGSSFILSSDDDDDDI

Variants of: B1
Details: with SF3B1, O75533-1
SF3B1, O75533-1, sequence (O75533 whole entry): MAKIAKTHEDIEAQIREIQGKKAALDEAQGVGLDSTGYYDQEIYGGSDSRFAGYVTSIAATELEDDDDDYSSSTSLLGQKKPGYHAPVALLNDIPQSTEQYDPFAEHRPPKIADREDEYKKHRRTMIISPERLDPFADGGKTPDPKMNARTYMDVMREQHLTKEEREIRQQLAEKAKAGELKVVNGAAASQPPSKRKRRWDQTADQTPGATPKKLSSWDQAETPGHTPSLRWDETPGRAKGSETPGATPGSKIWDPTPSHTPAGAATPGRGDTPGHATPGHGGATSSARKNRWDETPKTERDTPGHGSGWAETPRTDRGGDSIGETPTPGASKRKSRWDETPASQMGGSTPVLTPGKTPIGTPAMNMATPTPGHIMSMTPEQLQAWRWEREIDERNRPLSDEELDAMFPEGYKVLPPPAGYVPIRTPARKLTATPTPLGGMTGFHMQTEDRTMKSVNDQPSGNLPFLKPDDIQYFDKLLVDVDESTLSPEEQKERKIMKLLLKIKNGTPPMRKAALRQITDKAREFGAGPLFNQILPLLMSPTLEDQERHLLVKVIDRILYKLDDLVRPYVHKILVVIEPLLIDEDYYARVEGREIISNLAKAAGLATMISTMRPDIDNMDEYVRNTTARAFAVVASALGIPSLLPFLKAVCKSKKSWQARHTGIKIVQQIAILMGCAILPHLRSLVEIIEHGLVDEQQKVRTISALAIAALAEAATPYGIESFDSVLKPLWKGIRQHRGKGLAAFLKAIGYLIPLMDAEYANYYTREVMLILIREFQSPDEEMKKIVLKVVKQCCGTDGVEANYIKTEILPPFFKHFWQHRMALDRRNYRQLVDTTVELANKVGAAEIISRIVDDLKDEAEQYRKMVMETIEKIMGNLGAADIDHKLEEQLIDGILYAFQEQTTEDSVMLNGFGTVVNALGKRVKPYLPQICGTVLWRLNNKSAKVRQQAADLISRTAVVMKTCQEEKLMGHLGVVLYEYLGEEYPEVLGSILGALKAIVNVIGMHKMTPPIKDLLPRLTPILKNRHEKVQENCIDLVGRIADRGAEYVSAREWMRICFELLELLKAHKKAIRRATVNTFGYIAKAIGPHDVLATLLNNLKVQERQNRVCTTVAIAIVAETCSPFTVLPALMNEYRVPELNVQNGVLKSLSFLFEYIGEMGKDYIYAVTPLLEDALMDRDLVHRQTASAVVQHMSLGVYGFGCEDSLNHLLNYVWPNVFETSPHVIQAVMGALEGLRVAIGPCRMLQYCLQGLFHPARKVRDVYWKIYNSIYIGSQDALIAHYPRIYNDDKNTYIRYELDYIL

effect of a mutation on the interaction | Variant
disrupting interaction strength | E286K;F337A
disrupting interaction strength | E286K;D290K
